Measured values: the supplement of paper PMC12042874
± gives the uncertainty stated by the source.

Test: amyloid nucleation score (Sup35N fusion, yeast selection) (log enrichment); library NNK1; higher = more nucleation; inactive = no reads after selection
In short: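 Peptides of 20 random codons, each fused to Sup35N, were expressed in psi-negative yeast. Cells were induced with 100 μM copper sulfate for 24 hours and grown 7 days at 30°C on medium lacking adenine and uracil, and plasmid inserts before and after selection were Illumina-sequenced. Nucleation scores are DiMSum log enrichments of output over input reads, centred on the mode score of non-aggregating sequences, and sequences under 100 input reads were excluded.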

Substance | amyloid nucleation score
LLVNGLMGMWPIFII | -1.03 ± 2.4
LSQIWIKSPGFAKDFTPILC | 0.045 ± 0.36
RGSQGLVNLYIAFPMECLGI | 3.73 ± 0.087
SYQCGENYMFAYVNWSVGGN | 0.548 ± 0.84
ADDGAVLCRCEAGGTSWSVC | inactive
SFCLAVGPNLMTIGICMLQQ | inactive
FHMARKQETTSI | -0.18 ± 1.7
SMIDFIRSFLYHSY | -1.1 ± 0.5
HSTTLPLLWAYILYPAFG | -0.267 ± 0.37
ILSSFILVANCWILFHPLFW | -0.411 ± 0.52
DGELMAYLSDGNQG | inactive
GAIFYGVCCIRPNWNVVSTS | 5.69 ± 0.059
RARTKAWWMDWSGYRRGGHL | 0.118 ± 0.58
NLLWCIVGTKPWKVLTTVNY | -0.28 ± 0.38
LVVLL | -0.108 ± 0.71
RFNWSSDLCSFKTPLSKHVG | 0.258 ± 0.41
MAWDLT | 1.52 ± 0.22
TLAIESGRFWINRLWYVEGE | -1.55 ± 1.3
SQTNSIISCLERFAGGLVLI | 0.349 ± 0.55
VKYSVENCMITWDVYMGASL | -0.561 ± 0.29
GFRFEMSRQIHKWQSSCLLY | 0.489 ± 0.6
SVLLEGFLSYPDLSTNLIHV | -0.416 ± 0.81
RSARIKNWSSLYLWMINSCV | 0.469 ± 0.32
PFNGSLFYYVSWVKTNYGYY | 0.225 ± 0.93
GTDYVEGCCSLNFRCCCVNG | 5.117 ± 0.05

Substance | amyloid nucleation score
HSCAFNESHVFMHILCVISQ | -0.319 ± 0.44
TFVCAFRGY | 2.19 ± 0.098
QRIGHLVLDSVGRTSCVMGA | 0.386 ± 0.41
VLQDSGIAAYKYSGSCDCSF | -1.07 ± 0.58
CCFNYKSPWSMWFNLRLSNP | 5.06 ± 0.071
VHNPSVNDLYFLVICCVYLF | 0.484 ± 0.26
YRIKGVNWALPLCLALLSLR | 0.068 ± 0.61
YFRCKFDRASIQHLIASRAH | 3.18 ± 0.19
WRYKIIRSR | 1.5 ± 0.4
YCDVSTYMSEHTISVAQAQS | 0.284 ± 0.41
GHYRFVSFRFSWAEGAQLRG | 1.68 ± 0.25
ATSGGYGRFLVIISFDWVGA | -0.34 ± 0.37
YRVVLAECTSGYWEDIYSHI | 1.75 ± 0.16
VLQRVQKPLLCMRVLDIYAW | -0.11 ± 0.43
VFSCLLHYIFKAMLGYSVCL | -0.155 ± 0.3
LVCRYFRNRWMPSTRWGVHS | 0.711 ± 0.85
MVQNVWDVRYDEAAMTLVRH | 0.461 ± 0.61
ILSNTRSVFYSSN | -0.089 ± 0.38
KRMVCDVCIDVMPSEFKQAG | 1.02 ± 0.76
FCFGGNVGRYLMVRPCVFGY | 0.035 ± 0.71
VDNIYAGVELLFSCKM | -0.331 ± 0.28
VYFVTFWSYVNFHV | -0.208 ± 0.28
INRHVAMWEDQVLSRLAMWF | 2.53 ± 0.13
DAVSYNSPGGELYDLFNLTA | -0.994 ± 0.97
SRHSGGAYNIVTMVT | 0.517 ± 0.33

Substance | amyloid nucleation score
RWTVLRIWIYEVQKIAARRS | 0.098 ± 0.44
VYWTVDIWVFFVTAC | 1.49 ± 0.13
NLKADRFDHGSPEVVSLSFI | -0.027 ± 0.98
TQCSFAANQF | 0.768 ± 0.39
RVIGPTHYLQLCNIMFCDYI | 7.206 ± 0.051
GALCCLCRSNHYVLQCGVKC | 1.47 ± 0.7
TLTVSGAADIITFGSTIVVG | 0.193 ± 1.5
GKEYYAIPMKNDGIARVNLR | 0.875 ± 0.28
VLGLGRENSLRVNFYRLCKS | inactive
DPDHGPFQNNVWQRRPRWSH | 0.124 ± 0.47
VLLVRSNKSKLDRHRDWSGK | 0.466 ± 1.4
PIRPWAHYGMANWVQKAF | -0.763 ± 0.52
TTYHCGP | 0.039 ± 1.5
MCSLFVCMSNTSIV | 5.406 ± 0.051
FVYCNAAIAISSFGTWEPKG | 2.9 ± 0.1
LGLFCESYDEADCRTEDSAC | 0.254 ± 0.3
INTYWAGCIFCRMFGESRLK | 7.253 ± 0.069
VNLFVLYPIYLFGSCSHNLM | 7.373 ± 0.053
LWLIPRWYDLTEMECFDMYN | 0.477 ± 0.45
QDRNVSWLYIGSVTGRRVAG | 0.488 ± 0.66
RNYLIDV | -0.668 ± 0.4
ITYMYGYCMDYF | 0.439 ± 0.38
PSSIWNAMFYGYNCMYLLKT | -0.392 ± 0.34
DPVTDVFG | -0.541 ± 0.36
AFYGVDFSSGRGLFSY | -0.574 ± 1.1

Substance | amyloid nucleation score
LMVNYRLRLYFFVLDSCDGE | -0.348 ± 0.28
DKLSNVFLFLTDGCLNFNSF | 3.1 ± 0.11
RLCKKSIHRDVASRFPNEDV | 1.02 ± 0.36
WSPTVAMLDGAVRGVAPATH | -0.7 ± 0.57
HFVCYNCWGYICTVCLTSRE | 8.228 ± 0.065
DGEFRRDSSCVGVEERVVLV | 0.551 ± 1.2
NICVFNEFKVYNAYTVYWGW | 5.801 ± 0.054
SSPPDNTKSKATLKALE | -1.5 ± 2.4
SNNVFMAVNSSQRIQQFMLA | 1.03 ± 0.14
FYSNWRYDGYWDDLGMNIIV | -0.372 ± 0.4
VMKLDGDPKQVFPGYSLMEG | -0.092 ± 0.36
IVCSGLCHIN | 7.08 ± 0.071
LNRFVPASRWDHLHL | -0.353 ± 1.7
GMSSRMPQLNSWEPRGGDSG | -0.144 ± 0.83
IETSKFRPINVKLVIYCCHG | 0.499 ± 0.79
TRLLRVGRSNFSLNEHSDRI | -0.376 ± 0.9
TIIFYVFQCSMLRFIQMV | inactive
GVQAVNVEVVNEVCLVKEAT | -0.153 ± 0.46
DNNTVITIEQC | 0.286 ± 1
GSLFWEVMKVMADGMCDVSL | 0.59 ± 0.54
LLMGFGGAFSVNTADPRLLV | -0.752 ± 0.65
NGLGFLNGRSSFGVGCYY | -0.486 ± 0.28
FTGCGLSPMGT | 1.05 ± 0.73
MFGIFM | 3.58 ± 0.099
STRMVYR | -0.261 ± 0.95

Substance | amyloid nucleation score
AFIKNLTLCLDWTHSGAVYM | 7.24 ± 0.08
PPLAYWVYPMVRTLFEGRVP | 0.754 ± 0.45
NCMLTECPGLHSNLMWSKWG | 1.5 ± 0.25
YMWFMNRSILIIAELFVVFT | -0.287 ± 0.48
RMAPMMDP | -0.227 ± 1.1
YFWGKHTRFMISY | 0.018 ± 0.36
CVWFFLFPVQAITLFDLESV | -0.033 ± 0.74
SRIYLLSDRSVFLLLYNYYR | -0.167 ± 0.41
QRSRHSIFQGILRGSNSSWD | 1.12 ± 0.69
SFSVSLTTYVYYFICHYAGI | 1.96 ± 0.13
RHVNEQDILREQFLLMDFRK | 0.753 ± 0.72
AGDTGFTHTYSCWIKQWFVF | 0.705 ± 0.47
ALEWHGQTYSFRIEI | 0.537 ± 0.36
YPYRV | -1.12 ± 1.2
CGDGPHHVLCLSVVDICVGC | -1.04 ± 1.6
LQEVSWYSTVALTLSNLKWG | -0.389 ± 0.46
ALGYIPPRRCMTGSPPSVPR | 0.529 ± 0.84
VVEKYSCIRESFHEGFG | -1.07 ± 1.7
SIFLSNILNDTWFLSALSCM | -1.41 ± 0.53
MVWVKGEDCFVDQACLRGAV | 1.03 ± 0.72
LLLDTLVCVVKHTNTCFSKW | 0.503 ± 0.26
QYLFIYFLALS | -1.27 ± 0.53
MPLSILQLKTRFFKPSNDSR | 5.42 ± 0.11
FYDPALMSITNSD | 1.73 ± 0.15
CLYPVLQVPMCGNMAERQGV | 0.074 ± 0.69

Substance | amyloid nucleation score
SVRFSIETISWRGAYNRGTR | 1.98 ± 0.22
FHSLRLRLMRNYG | -0.31 ± 1.4
SAFVDWSAGSSNDFFFF | -0.577 ± 0.94
YVLIVNWIRSK | 4.42 ± 0.075
SIYET | 0.524 ± 0.49
FTNPRINMSRFSLSFCPARY | 2.1 ± 0.25
FCRHLGLSS | 1.25 ± 0.44
TWRLDIFGGRRGRVASRKKW | -0.076 ± 0.96
FNCRVNFFDSVGY | 3.28 ± 0.16
ASIYCWLLNRHLDDDFLWLS | -0.702 ± 1.9
YWSLYSPFYAIHSVILTICQ | 0.496 ± 0.18
RLRITVTISATAGMMRRLHR | 2.39 ± 0.14
GVSMGKESMIV | -0.671 ± 0.72
PMTVSNEFAPSILLSRALFW | 3.99 ± 0.14
KMLFGH | -0.085 ± 0.79
RNNEDGRLKDRRRGLSHGPC | -0.763 ± 0.36
YVWKMIHVYGMTLSDFTFKV | 5.19 ± 0.053
SNILFLYRMKRALPNSSWEA | 0.152 ± 0.48
MPLYLVCDFLNYGFVISVSS | 4.42 ± 0.095
KSQLRQSTYPS | -0.358 ± 0.82
CYALNWCRLPALHSFFQCRK | 0.853 ± 0.65
LLCICWLALICCLNSELGSQ | -0.675 ± 1
SKMILEV | inactive
VRIILWTMDVIFRLMFTRDQ | 0.41 ± 0.51
VLFIWTLF | 0.341 ± 0.26

Substance | amyloid nucleation score
SGKGMPNMNIPFHMWYQICY | 0.001 ± 0.33
SRCHQRTYEVIAEYDLSKTE | 0.223 ± 0.52
GVTWLSEISV | 0.885 ± 0.73
KFILTVPMANSATYTFACLD | inactive
SESYEFVVHLHMESLRKLN | -0.245 ± 0.71
NVNWKWVGNTLVVSIMVEAN | inactive
PLRASRTMTSGKLQPNLRRK | 0.035 ± 0.76
FLAVIGAPNRCDFGQSMLRM | 3.51 ± 0.081
DRRFRIITHLANSLIWNKWQ | 0.076 ± 0.49
VTSWDMS | 0.016 ± 0.26
SLAWSRMRCKFWSVSPSAFP | -0.352 ± 0.49
FLSCFDILLHGVSYNSFQYW | 0.54 ± 0.42
FFHSAYCFCNNLPMGLDLWS | 5.81 ± 0.083
RHVVRR | 0.441 ± 0.36
TLRWGNYKLLQIVYITVWRD | 0.541 ± 0.28
GLLNR | 0.435 ± 0.19
WSYMVL | -0.645 ± 0.81
LIIILVQQSEGACRILARD | 0.028 ± 0.34
FVLVMLNMQ | 4.4 ± 0.093
